Measurements from publication PMC11139983.

Legend:
VUN701 = experiment: BRET-based β-arrestin2 recruitment competition assay (functional KB); settings: 90% effective concentration of CXCL12 determined for each ACKR3 variant; parent: est. 0.0; read off a plot
[1] = biological target: atypical chemokine receptor 3 (ACKR3) (human)
[2] = biological target: atypical chemokine receptor 3 (ACKR3) (human); remark: listed apart in the source

Chain of atypical chemokine receptor 3 (ACKR3) (human) (chain, as listed by the source): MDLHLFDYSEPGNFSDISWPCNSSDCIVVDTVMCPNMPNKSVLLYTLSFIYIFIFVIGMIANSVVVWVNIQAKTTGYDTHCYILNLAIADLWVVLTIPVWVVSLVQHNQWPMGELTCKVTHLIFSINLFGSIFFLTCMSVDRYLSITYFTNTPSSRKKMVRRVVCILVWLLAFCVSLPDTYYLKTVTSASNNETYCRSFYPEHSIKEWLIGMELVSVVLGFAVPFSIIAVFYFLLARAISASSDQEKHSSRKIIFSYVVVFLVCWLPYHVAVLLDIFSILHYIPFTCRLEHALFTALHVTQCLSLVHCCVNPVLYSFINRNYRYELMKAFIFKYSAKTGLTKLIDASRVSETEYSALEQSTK

Work on “atypical chemokine receptor 3 (ACKR3) E290A” yielded a log10 ratio (VUN701) of -1.8.

With “atypical chemokine receptor 3 (ACKR3) D275A” the log10 ratio (VUN701) was -1.8.

With “atypical chemokine receptor 3 (ACKR3) F285A” the log10 ratio (VUN701) was -2.4.

B1: VUN701 (VHH)
VHH: QVQLVESGGGLVQAGGSLRLSCAASGSTFSLHLMGWYRQAPGKQREVVATSGSGGDTNYADSVKGRFTISRDNDKNTVDLQMNNLKPEDTADYYCRAQQKIGRDTFRDYWGQGTQVTVSS
B1 was tested, and the KB from Schild analysis of CXCL12-induced β-arrestin2 recruitment to ACKR3 (BRET); blocks m3 with m2 [1] was 18.2 nM, the IC50 of inhibition of CXCL11-induced β-arrestin2 recruitment to ACKR3 (BRET, HEK293T); blocks m4 with m2 [2] was 105 nM and the IC50 of inhibition of CXCL12-induced β-arrestin2 recruitment to ACKR3 (BRET, HEK293T); blocks m3 with m2 [2] was 157 nM. For the same molecule, the KB (Cheng-Prusoff) from inhibition of CXCL11-induced β-arrestin2 recruitment to ACKR3 (BRET); blocks m4 with m2 [2] was 23.3 nM, the KB (Cheng-Prusoff) from inhibition of CXCL12-induced β-arrestin2 recruitment to ACKR3 (BRET); blocks m3 with m2 [2] was 9.8 nM and the pKB (Cheng-Prusoff) from inhibition of CXCL11-induced β-arrestin2 recruitment to ACKR3 (BRET); blocks m4 with m2 [2] was 8.64.
